One may read the Kd as the constant that tells how readily two partners part at equilibrium. The low end stands for a tighter complex, the high end for a looser complex.

The assay concerns the target 4×SUMO2 linear fusion (C47A) with a single C-terminal cysteine labelled with Alexa488. The assay can be described thus: fluorescence polarisation; unlabelled RNF4 titrated against 1 µM 4×SUMO-Alexa488; 50 mM Tris, 150 mM NaCl, 0.5 mM TCEP, pH 7.5; room temperature, 10 min before measuring FP.

Substance “RNF4 ∆Basic, full-length (basic charge removed from the arginine-rich motif) (from UniProt O88846 1-194) (enzyme)” gave a Kd of 2600 nM.
